These are literature values, as cited in publication PMC5358871.

The data set deals with Bfd (Pseudomonas aeruginosa) (UniProt Q9HY80). Kind of data set: SPR, ITC.
Chain of UniProt Q9HY80 (Q9HY80 whole entry): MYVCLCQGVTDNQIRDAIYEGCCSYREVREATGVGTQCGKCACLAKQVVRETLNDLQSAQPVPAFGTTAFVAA

On to BfrB (from UniProt Q9HY79), for which the Kd is 3000 nM.
